Sequences and labels used below:
T1: EsCas13d, nuclease-dead (Eubacterium siraeum, UniProt B0MS50, R295A;H300A;R849A;H854A)
T1 sequence: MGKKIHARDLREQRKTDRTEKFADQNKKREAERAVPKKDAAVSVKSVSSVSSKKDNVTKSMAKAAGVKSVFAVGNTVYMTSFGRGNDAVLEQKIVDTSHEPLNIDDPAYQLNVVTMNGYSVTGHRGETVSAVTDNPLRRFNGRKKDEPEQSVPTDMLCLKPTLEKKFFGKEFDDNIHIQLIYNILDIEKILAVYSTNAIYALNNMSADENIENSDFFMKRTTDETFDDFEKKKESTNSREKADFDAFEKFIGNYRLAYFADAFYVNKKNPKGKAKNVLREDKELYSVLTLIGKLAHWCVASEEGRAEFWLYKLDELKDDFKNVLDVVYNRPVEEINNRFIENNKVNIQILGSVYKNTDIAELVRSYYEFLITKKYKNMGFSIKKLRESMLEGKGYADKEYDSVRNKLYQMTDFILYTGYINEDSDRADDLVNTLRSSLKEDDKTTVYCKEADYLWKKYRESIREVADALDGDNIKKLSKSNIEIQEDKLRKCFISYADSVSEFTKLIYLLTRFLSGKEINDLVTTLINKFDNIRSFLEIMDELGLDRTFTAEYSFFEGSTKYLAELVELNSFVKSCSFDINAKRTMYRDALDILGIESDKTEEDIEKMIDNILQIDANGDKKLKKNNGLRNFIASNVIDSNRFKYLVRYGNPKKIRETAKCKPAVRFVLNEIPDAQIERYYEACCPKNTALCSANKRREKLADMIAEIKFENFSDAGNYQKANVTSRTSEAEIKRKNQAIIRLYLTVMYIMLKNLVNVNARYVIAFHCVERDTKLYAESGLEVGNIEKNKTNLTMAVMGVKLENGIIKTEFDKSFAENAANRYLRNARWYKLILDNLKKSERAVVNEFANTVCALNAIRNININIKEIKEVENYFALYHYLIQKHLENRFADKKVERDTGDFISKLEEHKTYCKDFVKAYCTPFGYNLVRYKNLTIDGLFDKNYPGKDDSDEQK

B1: target 2 MT 5'PFS AUA 3'PFS ACG (mixed)
RNA 1: CACCCGUGCAAAAUUGCAGGGGUCUAAAACCUUCUCCAAAUUGUUUCAUCCU
RNA 2: GGGAAUGGAUCCACAUCUACGAAUUCAUAAGGAUGAAACAAUUUGGAGAAGACGAGAUCGGAAGAGCACACGU
B2: target 2 MT 5'PFS GGC 3'PFS AUA (mixed)
RNA 1: CACCCGUGCAAAAUUGCAGGGGUCUAAAACCUUCUCCAAAUUGUUUCAUCCU
RNA 2: GGGAAUGGAUCCACAUCUACGAAUUCGGCAGGAUGAAACAAUUUGGAGAAGAUAAGAUCGGAAGAGCACACGU
B3: target 2 MT 5'PFS CUA 3'PFS UUU (mixed)
RNA 1: CACCCGUGCAAAAUUGCAGGGGUCUAAAACCUUCUCCAAAUUGUUUCAUCCU
RNA 2: GGGAAUGGAUCCACAUCUACGAAUUCCUAAGGAUGAAACAAUUUGGAGAAGUUUAGAUCGGAAGAGCACACGU
B4: target 2 MT 5'PFS UGU 3'PFS ACG (mixed)
RNA 1: CACCCGUGCAAAAUUGCAGGGGUCUAAAACCUUCUCCAAAUUGUUUCAUCCU
RNA 2: GGGAAUGGAUCCACAUCUACGAAUUCUGUAGGAUGAAACAAUUUGGAGAAGACGAGAUCGGAAGAGCACACGU
B5: target 2 MT 5'PFS AUA 3'PFS ACC (mixed)
RNA 1: CACCCGUGCAAAAUUGCAGGGGUCUAAAACCUUCUCCAAAUUGUUUCAUCCU
RNA 2: GGGAAUGGAUCCACAUCUACGAAUUCAUAAGGAUGAAACAAUUUGGAGAAGACCAGAUCGGAAGAGCACACGU
B6: target 2 MT 5'PFS UUU 3'PFS UUA (mixed)
RNA 1: CACCCGUGCAAAAUUGCAGGGGUCUAAAACCUUCUCCAAAUUGUUUCAUCCU
RNA 2: GGGAAUGGAUCCACAUCUACGAAUUCUUUAGGAUGAAACAAUUUGGAGAAGUUAAGAUCGGAAGAGCACACGU
B7: target 2 MT 5'PFS UUU 3'PFS UUU (mixed)
RNA 1: CACCCGUGCAAAAUUGCAGGGGUCUAAAACCUUCUCCAAAUUGUUUCAUCCU
RNA 2: GGGAAUGGAUCCACAUCUACGAAUUCUUUAGGAUGAAACAAUUUGGAGAAGUUUAGAUCGGAAGAGCACACGU
B8: target 2 MT 5'PFS UGC 3'PFS ACU (mixed)
RNA 1: CACCCGUGCAAAAUUGCAGGGGUCUAAAACCUUCUCCAAAUUGUUUCAUCCU
RNA 2: GGGAAUGGAUCCACAUCUACGAAUUCUGCAGGAUGAAACAAUUUGGAGAAGACUAGAUCGGAAGAGCACACGU
B9: target 2 MT 5'PFS CUA 3'PFS UUA (mixed)
RNA 1: CACCCGUGCAAAAUUGCAGGGGUCUAAAACCUUCUCCAAAUUGUUUCAUCCU
RNA 2: GGGAAUGGAUCCACAUCUACGAAUUCCUAAGGAUGAAACAAUUUGGAGAAGUUAAGAUCGGAAGAGCACACGU
B10: target 2 MT 5'PFS UGU 3'PFS ACU (mixed)
RNA 1: CACCCGUGCAAAAUUGCAGGGGUCUAAAACCUUCUCCAAAUUGUUUCAUCCU
RNA 2: GGGAAUGGAUCCACAUCUACGAAUUCUGUAGGAUGAAACAAUUUGGAGAAGACUAGAUCGGAAGAGCACACGU
B11: target 2 MT 5'PFS GGC 3'PFS AUG (mixed)
RNA 1: CACCCGUGCAAAAUUGCAGGGGUCUAAAACCUUCUCCAAAUUGUUUCAUCCU
RNA 2: GGGAAUGGAUCCACAUCUACGAAUUCGGCAGGAUGAAACAAUUUGGAGAAGAUGAGAUCGGAAGAGCACACGU
B12: target 2 MT 5'PFS GGC 3'PFS AUU (mixed)
RNA 1: CACCCGUGCAAAAUUGCAGGGGUCUAAAACCUUCUCCAAAUUGUUUCAUCCU
RNA 2: GGGAAUGGAUCCACAUCUACGAAUUCGGCAGGAUGAAACAAUUUGGAGAAGAUUAGAUCGGAAGAGCACACGU
B13: target 2 MT 5'PFS GAA 3'PFS ACA (mixed)
RNA 1: CACCCGUGCAAAAUUGCAGGGGUCUAAAACCUUCUCCAAAUUGUUUCAUCCU
RNA 2: GGGAAUGGAUCCACAUCUACGAAUUCGAAAGGAUGAAACAAUUUGGAGAAGACAAGAUCGGAAGAGCACACGU
B14: target 2 MT 5'PFS GAG 3'PFS UGU (mixed)
RNA 1: CACCCGUGCAAAAUUGCAGGGGUCUAAAACCUUCUCCAAAUUGUUUCAUCCU
RNA 2: GGGAAUGGAUCCACAUCUACGAAUUCGAGAGGAUGAAACAAUUUGGAGAAGUGUAGAUCGGAAGAGCACACGU
B15: target 2 MT 5'PFS GGC 3'PFS AUC (mixed)
RNA 1: CACCCGUGCAAAAUUGCAGGGGUCUAAAACCUUCUCCAAAUUGUUUCAUCCU
RNA 2: GGGAAUGGAUCCACAUCUACGAAUUCGGCAGGAUGAAACAAUUUGGAGAAGAUCAGAUCGGAAGAGCACACGU
B16: target 2 MT 5'PFS GAG 3'PFS UGA (mixed)
RNA 1: CACCCGUGCAAAAUUGCAGGGGUCUAAAACCUUCUCCAAAUUGUUUCAUCCU
RNA 2: GGGAAUGGAUCCACAUCUACGAAUUCGAGAGGAUGAAACAAUUUGGAGAAGUGAAGAUCGGAAGAGCACACGU
B17: target 2 MT 5'PFS GAG 3'PFS UGC (mixed)
RNA 1: CACCCGUGCAAAAUUGCAGGGGUCUAAAACCUUCUCCAAAUUGUUUCAUCCU
RNA 2: GGGAAUGGAUCCACAUCUACGAAUUCGAGAGGAUGAAACAAUUUGGAGAAGUGCAGAUCGGAAGAGCACACGU
B18: target 2 MT 5'PFS GAA 3'PFS ACG (mixed)
RNA 1: CACCCGUGCAAAAUUGCAGGGGUCUAAAACCUUCUCCAAAUUGUUUCAUCCU
RNA 2: GGGAAUGGAUCCACAUCUACGAAUUCGAAAGGAUGAAACAAUUUGGAGAAGACGAGAUCGGAAGAGCACACGU
B19: target 2 MT 5'PFS GCC 3'PFS AUU (mixed)
RNA 1: CACCCGUGCAAAAUUGCAGGGGUCUAAAACCUUCUCCAAAUUGUUUCAUCCU
RNA 2: GGGAAUGGAUCCACAUCUACGAAUUCGCCAGGAUGAAACAAUUUGGAGAAGAUUAGAUCGGAAGAGCACACGU
B20: target 2 MT 5'PFS CUA 3'PFS UUC (mixed)
RNA 1: CACCCGUGCAAAAUUGCAGGGGUCUAAAACCUUCUCCAAAUUGUUUCAUCCU
RNA 2: GGGAAUGGAUCCACAUCUACGAAUUCCUAAGGAUGAAACAAUUUGGAGAAGUUCAGAUCGGAAGAGCACACGU
B21: target 2 MT 5'PFS AUA 3'PFS ACA (mixed)
RNA 1: CACCCGUGCAAAAUUGCAGGGGUCUAAAACCUUCUCCAAAUUGUUUCAUCCU
RNA 2: GGGAAUGGAUCCACAUCUACGAAUUCAUAAGGAUGAAACAAUUUGGAGAAGACAAGAUCGGAAGAGCACACGU
B22: target 2 MT 5'PFS UGU 3'PFS ACA (mixed)
RNA 1: CACCCGUGCAAAAUUGCAGGGGUCUAAAACCUUCUCCAAAUUGUUUCAUCCU
RNA 2: GGGAAUGGAUCCACAUCUACGAAUUCUGUAGGAUGAAACAAUUUGGAGAAGACAAGAUCGGAAGAGCACACGU
B23: target 2 MT 5'PFS UGC 3'PFS ACA (mixed)
RNA 1: CACCCGUGCAAAAUUGCAGGGGUCUAAAACCUUCUCCAAAUUGUUUCAUCCU
RNA 2: GGGAAUGGAUCCACAUCUACGAAUUCUGCAGGAUGAAACAAUUUGGAGAAGACAAGAUCGGAAGAGCACACGU
B24: target 1 U8C,G12A (mixed)
RNA 1: CACCCGUGCAAAAAUGCAGGGGUCUAAAACUGAGCGGAUAACCUCUCUAUGG
RNA 2: GGGAAUGGAUCCACAUCUACGAAUUCGUACCAUAGAGAGAUUACCCGCUCACCGAGAUCGGAAGAGCACACGU
B25: target 1 insC 3' of 8,insC 3' of 3 (mixed)
RNA 1: CACCCGUGCAAAAAUGCAGGGGUCUAAAACUGAGCGGAUAACCUCUCUAUGG
RNA 2: GGGAAUGGAUCCACAUCUACGAAUUCGUACCAUAGAGAGGUUAUCCCGCUCCACCGAGAUCGGAAGAGCACACGU
B26: target 1 G12A,A14U (mixed)
RNA 1: CACCCGUGCAAAAAUGCAGGGGUCUAAAACUGAGCGGAUAACCUCUCUAUGG
RNA 2: GGGAAUGGAUCCACAUCUACGAAUUCGUACCAUAGAGUGAUUAUCCGCUCACCGAGAUCGGAAGAGCACACGU
B27: target 1 C7G,U11G (mixed)
RNA 1: CACCCGUGCAAAAAUGCAGGGGUCUAAAACUGAGCGGAUAACCUCUCUAUGG
RNA 2: GGGAAUGGAUCCACAUCUACGAAUUCGUACCAUAGAGAGGGUAUGCGCUCACCGAGAUCGGAAGAGCACACGU

We go through 27 molecules from paper PMC10786891, “Massively parallel profiling of RNA-targeting CRISPR-Cas13d”.

By Kd is commonly meant the free concentration of one partner at which half of the binding sites on the other are occupied at equilibrium, for simple one-to-one binding.

The target in this series is T1, EsCas13d, nuclease-dead. Description: crRNA (strand 1, pre-loaded); Mg2+; 40 mM Tris-HCl pH 7.5, 150 mM NaCl, 6 mM MgCl2, 1 mM DTT, 0.1% Tween-20, 0.2 mg/ml BSA; 25 C; 10 min per concentration, then washed. To be noted: tags: His6-TwinStrep-SUMO cleaved; N-terminal SNAP kept (SNAP-Surface 488); label: 3' end held by stalled T7 RNA polymerase.
B1 gave a Kd of 14 ± 5 nM.

With B2, the affinity, expressed as Kd, was 10.8 ± 1 nM.

In the case of B3, binding was put at a Kd of 2.61 ± 0.28 nM.

With B4, the Kd is 15 ± 1.9 nM.

As for B5, the equilibrium dissociation constant (Kd) was found to be 10.7 ± 1.8 nM.

In turn, B6 had a dissociation constant (Kd) of 9.9 ± 1.3 nM.

For the molecule B7, binding was characterised by a dissociation constant (Kd) of 20 ± 4 nM.

In turn, B8 came in with a Kd of approximately 49 nM.

Regarding B9, the Kd amounted to 1.88 ± 0.26 nM.

In turn, B10 gave a Kd of 28 ± 12 nM.

B11 had a Kd of 15.2 ± 1.7 nM.

With B12, the dissociation constant (Kd) was found to be 12.4 ± 1.3 nM.

Consider B13, for which the Kd was 12 ± 4 nM.

The molecule B14 registered a dissociation constant (Kd) of 13.5 ± 1.7 nM.

B15: the Kd was 13.2 ± 1.1 nM.

Molecule B16 came in with a Kd of 9.5 ± 1.8 nM.

Molecule B17 gave a Kd of 7.1 ± 0.7 nM.

On to B18, for which the dissociation constant (Kd) is 11 ± 1.3 nM.

B19 yielded a Kd of 10.7 ± 1.3 nM.

With B20, the Kd amounted to 3.1 ± 0.9 nM.

As to B21, the Kd was 6.9 ± 1.6 nM. Compared with the last molecule, the Kd is about 2.2-fold higher.

In turn, B22 displayed a Kd of 14.9 ± 3.5 nM.

B23 displayed a Kd of 17 ± 4 nM.

In the case of B24, the Kd amounted to 12.5 ± 1 nM.

As to B25, the equilibrium dissociation constant (Kd) amounted to 13.3 ± 0.7 nM.

As for B26, the Kd was 26.3 ± 1.7 nM. This Kd is about 2-fold higher than that of the molecule before.

Consider B27, for which the Kd was found to be 24.7 ± 1.5 nM.
